The target of assay [1] is AxxA-SurR (SurR C23A C26A variant) (Pyrococcus furiosus). The assay is described as follows: crystal structure.
Assay [2] has the same target. The assay is described as follows: SEC. In general terms: SEC sorts molecules by how far they enter the pores of the column.
Assay [3] has as its target SurR oxidized with diamide or colloidal S^0 (Pyrococcus furiosus). The assay is described as follows: SEC.

For two substances, stoichiometry N results are on record in PMC2975895.

In the case of “AxxA-SurR (SurR C23A C26A variant) (natural protein)”, the stoichiometry N in assay [1] and in assay [2] was 2 each time. As for “SurR oxidized with diamide or colloidal S^0 (natural protein)”, the stoichiometry N (as a rule, a count of units in the complex or per binding partner) in assay [3] came to 2.
